In patent US20230049152A1 (Genentech, published 2023):

B1: hu.Ab4.H2L1 (antibody, human IgG1, kappa)
heavy: not shown
light: DYQMTQSPSSLSASVGDRVTITCQASQSISSYLSWYQQKPGKRPKLLIYKASTLASGVPSRFSGSGSGTDFTLTISSLQPEDFATYYCQQGYTSSNIDNIFGGGTKVEIKRTVAAPSVFIFPPSDEQLKSGTASVVCLLNNFYPREAKVQWKVDNALQSGNSQESVTEQDSKDSTYSLSSTLTLSKADYEKHKVYACEVTHQGLSSPVTKSFNRGEC
B2: hu.Ab4.H5L1 (antibody, human IgG1, kappa, V domains shown)
VH: EQQLLESGGGLVQPGGSLRLSCAVSGFSLSNYAMIWVRQAPGKGLEWVGTISLGGYTYYANWAKGRFTISRDSSKTTVYLQMNSLRAEDTAVYFCARARWSTDSAIYTYAFDPWGPGTLVTVSS
VL: DYQMTQSPSSLSASVGDRVTITCQASQSISSYLSWYQQKPGKRPKLLIYKASTLASGVPSRFSGSGSGTDFTLTISSLQPEDFATYYCQQGYTSSNIDNIFGGGTKVEIKR
B3: hu.Ab4.H6L1 (antibody, human IgG1, kappa, V domains shown)
VH: EQQLLESGGGLVQPGGSLRLSCAVSGFSLSNYAMIWVRQAPGKGLEWVGTISLGGYTYYANWAKGRFTISKDNSKTTVYLQMNSLRAEDTAVYFCARARWSTDSAIYTYAFDPWGPGTLVTVSS
VL: DYQMTQSPSSLSASVGDRVTITCQASQSISSYLSWYQQKPGKRPKLLIYKASTLASGVPSRFSGSGSGTDFTLTISSLQPEDFATYYCQQGYTSSNIDNIFGGGTKVEIKR
B4: hu.Ab4.H4L1 (antibody, human IgG1, kappa, V domains shown)
VH: EQQLLESGGGLVQPGGSLRLSCAVSGFSLSNYAMIWVRQAPGKGLEWVSTISLGGYTYYANWAKGRFTISKDSSKTTVYLQMNSLRAEDTAVYFCARARWSTDSAIYTYAFDPWGPGTLVTVSS
VL: DYQMTQSPSSLSASVGDRVTITCQASQSISSYLSWYQQKPGKRPKLLIYKASTLASGVPSRFSGSGSGTDFTLTISSLQPEDFATYYCQQGYTSSNIDNIFGGGTKVEIKR
B5: hu.Ab4.H9L1 (antibody, human IgG1, kappa, V domains shown)
VH: EQQLLESGGGLVQPGGSLRLSCAVSGFSLSNYAMIWVRQAPGKGLEWVGTISLGGYTYYANWAKGRFTISKDSSKTTVYLQMNSLRAEDTAVYYCARARWSTDSAIYTYAFDPWGPGTLVTVSS
VL: DYQMTQSPSSLSASVGDRVTITCQASQSISSYLSWYQQKPGKRPKLLIYKASTLASGVPSRFSGSGSGTDFTLTISSLQPEDFATYYCQQGYTSSNIDNIFGGGTKVEIKR
B6: hu.Ab4.H3L1 (antibody, human IgG1, kappa, V domains shown)
VH: EQQLLESGGGLVQPGGSLRLSCAASGFSLSNYAMIWVRQAPGKGLEWVGTISLGGYTYYANWAKGRFTISKDSSKTTVYLQMNSLRAEDTAVYFCARARWSTDSAIYTYAFDPWGPGTLVTVSS
VL: DYQMTQSPSSLSASVGDRVTITCQASQSISSYLSWYQQKPGKRPKLLIYKASTLASGVPSRFSGSGSGTDFTLTISSLQPEDFATYYCQQGYTSSNIDNIFGGGTKVEIKR
B7: hu.Ab4.H8L1 (antibody, human IgG1, kappa, V domains shown)
VH: EQQLLESGGGLVQPGGSLRLSCAVSGFSLSNYAMIWVRQAPGKGLEWVGTISLGGYTYYANWAKGRFTISKDSSKTTLYLQMNSLRAEDTAVYFCARARWSTDSAIYTYAFDPWGPGTLVTVSS
VL: DYQMTQSPSSLSASVGDRVTITCQASQSISSYLSWYQQKPGKRPKLLIYKASTLASGVPSRFSGSGSGTDFTLTISSLQPEDFATYYCQQGYTSSNIDNIFGGGTKVEIKR
B8: hu.Ab4.H7L1 (antibody, human IgG1, kappa, V domains shown)
VH: EQQLLESGGGLVQPGGSLRLSCAVSGFSLSNYAMIWVRQAPGKGLEWVGTISLGGYTYYANWAKGRFTISKDSSKNTVYLQMNSLRAEDTAVYFCARARWSTDSAIYTYAFDPWGPGTLVTVSS
VL: DYQMTQSPSSLSASVGDRVTITCQASQSISSYLSWYQQKPGKRPKLLIYKASTLASGVPSRFSGSGSGTDFTLTISSLQPEDFATYYCQQGYTSSNIDNIFGGGTKVEIKR
B9: hu.Ab5.H2L1 (antibody, human IgG1, kappa)
heavy: not shown
light: DIQVTQSPSSLSASVGDRVTITCQASENIANALAWYQQKPGKPPKFLIYGASNLASGVPSRFSGSGSGTDFTFTISSLQPEDIATYYCQQAYYGNSFVEGTFGGGTKVEIKRTVAAPSVFIFPPSDEQLKSGTASVVCLLNNFYPREAKVQWKVDNALQSGNSQESVTEQDSKDSTYSLSSTLTLSKADYEKHKVYACEVTHQGLSSPVTKSFNRGEC
B10: hu.Ab5.H7L1 (antibody, human IgG1, kappa, V domains shown)
VH: EQQLLESGGGLVQPGGSLRLSCAVSGIDLSTYAMGWVRQAPGKGLEWIGLIHRSGRTYYATWAKGRFTISKDNSKTTVYLQMNSLRAEDTAVYFCTRSYPDYSATASIWGPGTTVTVSS
VL: DIQVTQSPSSLSASVGDRVTITCQASENIANALAWYQQKPGKPPKFLIYGASNLASGVPSRFSGSGSGTDFTFTISSLQPEDIATYYCQQAYYGNSFVEGTFGGGTKVEIKR
B11: hu.Ab5.H3L1 (antibody, human IgG1, kappa, V domains shown)
VH: EQQLLESGGGLVQPGGSLRLSCAASGIDLSTYAMGWVRQAPGKGLEWIGLIHRSGRTYYATWAKGRFTISKDSSKTTVYLQMNSLRAEDTAVYFCTRSYPDYSATASIWGPGTTVTVSS
VL: DIQVTQSPSSLSASVGDRVTITCQASENIANALAWYQQKPGKPPKFLIYGASNLASGVPSRFSGSGSGTDFTFTISSLQPEDIATYYCQQAYYGNSFVEGTFGGGTKVEIKR
B12: hu.Ab5.H6L1 (antibody, human IgG1, kappa, V domains shown)
VH: EQQLLESGGGLVQPGGSLRLSCAVSGIDLSTYAMGWVRQAPGKGLEWIGLIHRSGRTYYATWAKGRFTISRDSSKTTVYLQMNSLRAEDTAVYFCTRSYPDYSATASIWGPGTTVTVSS
VL: DIQVTQSPSSLSASVGDRVTITCQASENIANALAWYQQKPGKPPKFLIYGASNLASGVPSRFSGSGSGTDFTFTISSLQPEDIATYYCQQAYYGNSFVEGTFGGGTKVEIKR
B13: hu.Ab5.H10L1 (antibody, human IgG1, kappa, V domains shown)
VH: EQQLLESGGGLVQPGGSLRLSCAVSGIDLSTYAMGWVRQAPGKGLEWIGLIHRSGRTYYATWAKGRFTISKDSSKTTVYLQMNSLRAEDTAVYYCTRSYPDYSATASIWGPGTTVTVSS
VL: DIQVTQSPSSLSASVGDRVTITCQASENIANALAWYQQKPGKPPKFLIYGASNLASGVPSRFSGSGSGTDFTFTISSLQPEDIATYYCQQAYYGNSFVEGTFGGGTKVEIKR
B14: hu.Ab5.H5L1 (antibody, human IgG1, kappa, V domains shown)
VH: EQQLLESGGGLVQPGGSLRLSCAVSGIDLSTYAMGWVRQAPGKGLEWISLIHRSGRTYYATWAKGRFTISKDSSKTTVYLQMNSLRAEDTAVYFCTRSYPDYSATASIWGPGTTVTVSS
VL: DIQVTQSPSSLSASVGDRVTITCQASENIANALAWYQQKPGKPPKFLIYGASNLASGVPSRFSGSGSGTDFTFTISSLQPEDIATYYCQQAYYGNSFVEGTFGGGTKVEIKR
B15: hu.Ab5.H12L1 (antibody, human IgG1, kappa, V domains shown)
VH: EVQLLESGGGLVQPGGSLRLSCAASGIDLSTYAMGWVRQAPGKGLEWVSLIHRSGRTYYATWAKGRFTISRDNSKNTLYLQMNSLRAEDTAVYYCTRSYPDYSATASIWGQGTTVTVSS
VL: DIQVTQSPSSLSASVGDRVTITCQASENIANALAWYQQKPGKPPKFLIYGASNLASGVPSRFSGSGSGTDFTFTISSLQPEDIATYYCQQAYYGNSFVEGTFGGGTKVEIKR
B16: hu.Ab5.H8L1 (antibody, human IgG1, kappa, V domains shown)
VH: EQQLLESGGGLVQPGGSLRLSCAVSGIDLSTYAMGWVRQAPGKGLEWIGLIHRSGRTYYATWAKGRFTISKDSSKNTVYLQMNSLRAEDTAVYFCTRSYPDYSATASIWGPGTTVTVSS
VL: DIQVTQSPSSLSASVGDRVTITCQASENIANALAWYQQKPGKPPKFLIYGASNLASGVPSRFSGSGSGTDFTFTISSLQPEDIATYYCQQAYYGNSFVEGTFGGGTKVEIKR
B17: hu.Ab5.H9L1 (antibody, human IgG1, kappa, V domains shown)
VH: EQQLLESGGGLVQPGGSLRLSCAVSGIDLSTYAMGWVRQAPGKGLEWIGLIHRSGRTYYATWAKGRFTISKDSSKTTLYLQMNSLRAEDTAVYFCTRSYPDYSATASIWGPGTTVTVSS
VL: DIQVTQSPSSLSASVGDRVTITCQASENIANALAWYQQKPGKPPKFLIYGASNLASGVPSRFSGSGSGTDFTFTISSLQPEDIATYYCQQAYYGNSFVEGTFGGGTKVEIKR
B18: hu.Ab5.H11L1 (antibody, human IgG1, kappa)
heavy: not shown
light: DIQVTQSPSSLSASVGDRVTITCQASENIANALAWYQQKPGKPPKFLIYGASNLASGVPSRFSGSGSGTDFTFTISSLQPEDIATYYCQQAYYGNSFVEGTFGGGTKVEIKRTVAAPSVFIFPPSDEQLKSGTASVVCLLNNFYPREAKVQWKVDNALQSGNSQESVTEQDSKDSTYSLSSTLTLSKADYEKHKVYACEVTHQGLSSPVTKSFNRGEC
B19: hu.Ab5.H4L1 (antibody, human IgG1, kappa, V domains shown)
VH: EQQLLESGGGLVQPGGSLRLSCAVSGIDLSTYAMGWVRQAPGKGLEWVGLIHRSGRTYYATWAKGRFTISKDSSKTTVYLQMNSLRAEDTAVYFCTRSYPDYSATASIWGPGTTVTVSS
VL: DIQVTQSPSSLSASVGDRVTITCQASENIANALAWYQQKPGKPPKFLIYGASNLASGVPSRFSGSGSGTDFTFTISSLQPEDIATYYCQQAYYGNSFVEGTFGGGTKVEIKR

What follows are binders tested against T1, human CCR8 (human, UniProt P51685 1-355) (assay: flow cytometry, CHO-huCCR8.Gna15 cells, relative to rb.Ab4).
T1 construct: the assay field says which; also called hCCR8; huCCR8
Description: (§1) Evaluation of CCR8 binding of the humanized variants with a hIgG1 Fc involved screening by flow cytometry, and comparing the relative EC₅₀ and MFI on human CCR8 CHO cells to the parental rabbit antibodies. Specifically, stable CHO-huCCR8.Gna15 cells were stained with various concentrations (starting from 10 ug/ml or 66.66 nM, 1:4 serial dilution for total 8 concentration points) of Ab4 and Ab5 variants at 4° C. for 30 minutes, then washed twice with FACS buffer (PBS with 0.5% BSA and 0.2 mM EDTA) and followed by staining with AF647-anti-hIgG at 4° C. for 15 min. Cells were washed twice with FACS buffer, and re-suspended in FACS buffer with propidium iodide (0.5 ug/ml) and analyzed with iQue3 (Sartorius).

Point of comparison: B7, “Relative EC50” value 1.03 ratio. Against it:
- B1 — lower, 0.99 ratio
- B2 — lower, 1.02 ratio
- B3 — higher, 1.06 ratio
- B4 — lower, 0.96 ratio
- B5 — higher, 1.04 ratio
- B6 — lower, 1 ratio
- B8 — higher, 1.05 ratio

Point of comparison: B4, “Relative MFI” value 1.06 ratio. Against it:
- B1 — higher, 1.07 ratio
- B2 — lower, 0.9 ratio
- B3 — lower, 0.68 ratio
- B5 — lower, 0.87 ratio
- B6 — lower, 1.02 ratio
- B7 — lower, 0.72 ratio
- B8 — lower, 0.44 ratio

These binders were tested against T1, human CCR8 (assay: flow cytometry, CHO-huCCR8.Gna15 cells, relative to rb.Ab5).
Description: as §1

Point of comparison: B11, “Relative EC50” value 1.5 ratio. Against it:
- B9 — lower, 1.1 ratio
- B10 — higher, 2.2 ratio
- B12 — higher, 2.4 ratio
- B13 — lower, 1.2 ratio
- B14 — higher, 7.6 ratio
- B15 — higher, 2.3 ratio
- B16 — lower, 1.4 ratio
- B17 — lower, 1.3 ratio
- B18 — lower, 1.3 ratio
- B19 — the same, 1.5 ratio

Point of comparison: B12, “Relative MFI” value 0.97 ratio. Against it:
- B9 — lower, 0.93 ratio
- B10 — lower, 0.96 ratio
- B11 — higher, 1 ratio
- B13 — lower, 0.87 ratio
- B14 — lower, 0.35 ratio
- B15 — lower, 0.26 ratio
- B16 — lower, 0.94 ratio
- B17 — lower, 0.92 ratio
- B18 — lower, 0.87 ratio
- B19 — lower, 0.95 ratio
